Measurements from doi:10.1101/2025.08.06.668955, “High-Affinity, Structure-Validated and Selective Macrocyclic Peptide Tools for Chemical Biology Studies of Huntingtin” (bioRxiv, 2025).
Each block holds one molecule with its values, some of them ahead of it. Where a SMILES comes first, the peptide text is derived from it. Bridges are numbered along the chain shown (N, C = ends). Primed or numbered codes have the meaning given here. Where no end group is shown, it is not given here. [ ]: non-standard residue; d: D form. The star is where a group is joined. FITC″ = fluorescein isothiocyanate; ClAc = O=C(CCl)*

What was measured:
HTT-HAP40 or HTT (HL5) = assay: FP displacement assay, FITC-labeled and unlabeled macrocycle pairs; assay type: binding; conditions: FITC-labeled HHL1 on HTT-HAP40; biological singlet in technical triplicate
Excerpt: We further verified the specificity of binding of the macrocycles for HTT and HTT-HAP40 by displacement assay (Supplementary Figure 3) with FITC-labeled and unlabeled macrocycle pairs. All labelled macrocycles were displaced by their sequence-matched unlabeled macrocycle, with IC50 values in the nanomolar range.
57 Supplementary Figure 3. Displacement of fluorescently labeled macrocycles. a, Schematic for
58 assay. b, Each fluorescently labeled macrocycle is displaced by its unlabeled partner from HTT-
59 HAP40 or HTT (HL5) Conducted as a biological singlet in technical triplicate. c, Fluorescently
60 labeled HHL1 is displaced by itself and HHD3, but no other macrocycle.
(§1) (1 picture or pasted object on this page, not shown here)

HTTQ23-HAP40 [1] = target: T1, HTTQ23-HAP40 (Homo sapiens, UniProt P23610+P42858, INS38QQ); assay: Thermal shift assay (DSF), HTTQ23-HAP40; assay type: binding; conditions: SYPRO Orange, 0.25 mg/mL protein, macrocycle up to 10 μM, 2.5% DMSO, n=3
T1 construct: Full-length wildtype HTT with a polyQ tract of 23 glutamines; FLAG; made in house; host or cells: Sf9 insect cells (baculovirus)
Procedure: In an Axygen® 384-well PCR microplate (REF# PCR-384-LC480-W-NF, Corning), samples were mixed to yield a final concentration of 0.25 mg/mL Q54 or Q23/HAP40, a 5-pt 2-fold serial dilution of each macrocycle (top concentration of 10 μM, 2.5% DMSO), and 5X SYPRO™ Orange (CAT# S6650, Thermo Fisher Scientific) in buffer (20 mM HEPES pH 7.4, 150 mM NaCl, 1 mM TCEP, 0.005% Tween-20). Differential Scanning Fluorimetry (DSF) was performed using a LightCycler® 480 (Roche LifeSciences) set to a 4 °C/min temperature ramp (20–95 °C) and fluorescence detection at 580 nm. Melting temperatures (Tm) were obtained from the minima of the negative derivative of each curve. The propagated error of the thermal shift (ΔTm) was calculated from the standard deviation of each Tm mean (n=3). To ensure a maximally macrocycle-bound fraction (KD ~10 nM; ~100% bound) at 0.25 mg/mL HTT or HTT-HAP40 (~0.7 μM), the upper limit of macrocycle tested was 10 μM.
98 Supplementary Figure. 10. Thermal shift (ΔTm) induced by macrocycle binding. Melting
99 temperature of HTTQ54 (left) with HL5 or HL2 minus HTTQ54 with DMSO (46.5 °C), and (right)
100 HTTQ23-HAP40 with HD4, HL2, HL5, HHD2, HHD3, or HHL1 minus HTTQ23-HAP40 with DMSO
101 (51.0 °C). ΔTm significance was determined using an unpaired t-test with Welch correction,
102 comparing to the mean Tm of Q54 or Q23-HAP40 with DMSO; *P < 0.05, **P < 0.01, ***P <
103 0.001. The summary table reports the ΔTm and exact P value at the highest concentration tested
as §1

HAP40 = assay: Macrocycle precipitation (MP), co-purification of HAP40, LC-MS/MS; assay type: binding, human; conditions: HEK293T lysate versus HTT CRISPR knockout line
Excerpt: To assess macrocycle selectivity and identify potential HTT interacting proteins, we performed LC-MS/MS analysis of the proteins in the MP eluates. To control for non-specific binding, we performed MPs using lysates from a HTT CRISPR knockout cell line ([Jung et al., 2021]). Across all macrocycles, HTT emerged as the most enriched protein after background subtraction (Figure 5b). Given we performed affinity purification using macrocycles targeting distinct HTT surfaces, we hypothesized that any real HTT protein binder might be co-purified with two or more macrocycles. […] In contrast, HAP40 was not enriched by HL5, consistent with its specificity for apo HTT.
Macrocycles were pre-conjugated to streptavidin beads (Cytiva, 17-5113-01) by incubating with a 30 μL slurry of beads per macrocycle purification (MP) in Lysis Buffer (10 mM Tris-HCl, pH 7.9, 150 mM NaCl, 0.1% NP-40, 1:500 protease inhibitor cocktail (Sigma-Aldrich), 1:1,000 benzonase nuclease, and 2 mM MgCl2) for 1 hour at 4°C. A concentration of 1.25 μM macrocycle was used for conjugation. After incubation, beads were washed three times with 500 μL Lysis Buffer to remove unbound macrocycles and resuspended in 500 μL of lysate at 4 mg/mL protein concentration.
Cells were harvested by centrifugation at 1,500 rpm for 5 minutes, washed twice with PBS, and snap-frozen. Cell pellets were then resuspended in 500 μL of Lysis Buffer (as described above) and incubated on an end-over-end rotator at 4°C for 1 hour. Lysates were clarified by centrifugation at 20,000g for 15 minutes at 4°C, and the supernatant was transferred to fresh 1.5 mL Eppendorf tubes. Protein concentration was determined by BCA assay (Thermo Fisher Scientific, 23225), yielding approximately 4 mg of protein on average. Lysates were diluted to a final concentration of 4 mg/mL for use, providing […] of total protein per MP.
Macrocycle-conjugated beads were incubated with 2 mg of lysate in Lysis Buffer for 1 hour at 4°C with rotation. After incubation, beads were collected by centrifugation at 3,000 rpm, and the flow-through was saved for analysis. Beads were then washed sequentially with 1 mL of Wash Buffer 1 (10 mM Tris-HCl, pH 7.9, 100 mM NaCl, 0.1% NP-40) and twice with Wash Buffer 2 (Wash Buffer 1 without detergent). Lastly, bound proteins were eluted from the beads with 200 μL of 0.5 M NH4OH and flash-frozen in liquid nitrogen.
All sample preparation, LC MS/MS data collection, and MS data searches were carried out at the SPARC BioCentre at The Hospital for Sick Children (Toronto, ON, Canada). […] Samples were analyzed by liquid chromatography tandem mass spectrometry (LC-MS/MS) using an EASY-nanoLC 1200 system with a 1 h analysis and an Orbitrap Fusion™ Lumos™ Tribrid™ Mass Spectrometer (Thermo Fisher Scientific). […]

[2] = target: C-terminally biotinylated HTTQ23 (apo) (biotin on the C-terminal Avi-tag); assay: SPR
[3] = target: C-terminally biotinylated HTTQ23 in complex with HAP40 (UniProt P23610 1-371, biotin on the C-terminal Avi-tag); assay: SPR
HTTQ54 (apo) = assay: FP
[4] = target: Full-length wildtype HTT with a polyQ tract of 23 glutamines, apo form (HTTQ23); assay: FP
HTTQ23-HAP40 [5] = target: HTTQ23-HAP40 (UniProt P23610 1-371); assay: FP
[6] = target: T2, 40-kDa huntingtin-associated protein (HAP40), chain of the HTT-HAP40 complex used for cryo-EM (UniProt P23610 1-371); assay: cryo-EM structure; HTT-HAP40 macrocycle complexes at 0.2 mg/ml in 25 mM HEPES pH 7.4, 150 mM NaCl, 0.025% CHAPS on graphene grids; Complex1 (HHL1, HL2, HD4) and Complex2 (HHD3, HL2, HD4); conditions: both partners purified
T2 construct: 40-kDa huntingtin-associated protein (HAP40); model built from PDB 6X90; The HAP40 chain of m26, for the pairs that touch in the structures
T2 sequence (looked up): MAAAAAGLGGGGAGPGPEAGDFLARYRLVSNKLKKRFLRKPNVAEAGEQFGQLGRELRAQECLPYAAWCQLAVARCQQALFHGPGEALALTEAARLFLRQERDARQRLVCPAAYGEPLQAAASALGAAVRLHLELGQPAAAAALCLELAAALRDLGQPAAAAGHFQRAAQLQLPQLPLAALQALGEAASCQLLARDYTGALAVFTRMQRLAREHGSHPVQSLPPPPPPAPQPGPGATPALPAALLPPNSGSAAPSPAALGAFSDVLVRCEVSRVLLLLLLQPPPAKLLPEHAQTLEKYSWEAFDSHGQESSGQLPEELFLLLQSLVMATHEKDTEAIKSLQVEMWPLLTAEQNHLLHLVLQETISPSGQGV

C-terminally biotinylated HTTQ23 in complex with HAP40, sequence (P42858 other isoform, or with tags, fused parts or gaps, chain 1 of 2, one chain of several): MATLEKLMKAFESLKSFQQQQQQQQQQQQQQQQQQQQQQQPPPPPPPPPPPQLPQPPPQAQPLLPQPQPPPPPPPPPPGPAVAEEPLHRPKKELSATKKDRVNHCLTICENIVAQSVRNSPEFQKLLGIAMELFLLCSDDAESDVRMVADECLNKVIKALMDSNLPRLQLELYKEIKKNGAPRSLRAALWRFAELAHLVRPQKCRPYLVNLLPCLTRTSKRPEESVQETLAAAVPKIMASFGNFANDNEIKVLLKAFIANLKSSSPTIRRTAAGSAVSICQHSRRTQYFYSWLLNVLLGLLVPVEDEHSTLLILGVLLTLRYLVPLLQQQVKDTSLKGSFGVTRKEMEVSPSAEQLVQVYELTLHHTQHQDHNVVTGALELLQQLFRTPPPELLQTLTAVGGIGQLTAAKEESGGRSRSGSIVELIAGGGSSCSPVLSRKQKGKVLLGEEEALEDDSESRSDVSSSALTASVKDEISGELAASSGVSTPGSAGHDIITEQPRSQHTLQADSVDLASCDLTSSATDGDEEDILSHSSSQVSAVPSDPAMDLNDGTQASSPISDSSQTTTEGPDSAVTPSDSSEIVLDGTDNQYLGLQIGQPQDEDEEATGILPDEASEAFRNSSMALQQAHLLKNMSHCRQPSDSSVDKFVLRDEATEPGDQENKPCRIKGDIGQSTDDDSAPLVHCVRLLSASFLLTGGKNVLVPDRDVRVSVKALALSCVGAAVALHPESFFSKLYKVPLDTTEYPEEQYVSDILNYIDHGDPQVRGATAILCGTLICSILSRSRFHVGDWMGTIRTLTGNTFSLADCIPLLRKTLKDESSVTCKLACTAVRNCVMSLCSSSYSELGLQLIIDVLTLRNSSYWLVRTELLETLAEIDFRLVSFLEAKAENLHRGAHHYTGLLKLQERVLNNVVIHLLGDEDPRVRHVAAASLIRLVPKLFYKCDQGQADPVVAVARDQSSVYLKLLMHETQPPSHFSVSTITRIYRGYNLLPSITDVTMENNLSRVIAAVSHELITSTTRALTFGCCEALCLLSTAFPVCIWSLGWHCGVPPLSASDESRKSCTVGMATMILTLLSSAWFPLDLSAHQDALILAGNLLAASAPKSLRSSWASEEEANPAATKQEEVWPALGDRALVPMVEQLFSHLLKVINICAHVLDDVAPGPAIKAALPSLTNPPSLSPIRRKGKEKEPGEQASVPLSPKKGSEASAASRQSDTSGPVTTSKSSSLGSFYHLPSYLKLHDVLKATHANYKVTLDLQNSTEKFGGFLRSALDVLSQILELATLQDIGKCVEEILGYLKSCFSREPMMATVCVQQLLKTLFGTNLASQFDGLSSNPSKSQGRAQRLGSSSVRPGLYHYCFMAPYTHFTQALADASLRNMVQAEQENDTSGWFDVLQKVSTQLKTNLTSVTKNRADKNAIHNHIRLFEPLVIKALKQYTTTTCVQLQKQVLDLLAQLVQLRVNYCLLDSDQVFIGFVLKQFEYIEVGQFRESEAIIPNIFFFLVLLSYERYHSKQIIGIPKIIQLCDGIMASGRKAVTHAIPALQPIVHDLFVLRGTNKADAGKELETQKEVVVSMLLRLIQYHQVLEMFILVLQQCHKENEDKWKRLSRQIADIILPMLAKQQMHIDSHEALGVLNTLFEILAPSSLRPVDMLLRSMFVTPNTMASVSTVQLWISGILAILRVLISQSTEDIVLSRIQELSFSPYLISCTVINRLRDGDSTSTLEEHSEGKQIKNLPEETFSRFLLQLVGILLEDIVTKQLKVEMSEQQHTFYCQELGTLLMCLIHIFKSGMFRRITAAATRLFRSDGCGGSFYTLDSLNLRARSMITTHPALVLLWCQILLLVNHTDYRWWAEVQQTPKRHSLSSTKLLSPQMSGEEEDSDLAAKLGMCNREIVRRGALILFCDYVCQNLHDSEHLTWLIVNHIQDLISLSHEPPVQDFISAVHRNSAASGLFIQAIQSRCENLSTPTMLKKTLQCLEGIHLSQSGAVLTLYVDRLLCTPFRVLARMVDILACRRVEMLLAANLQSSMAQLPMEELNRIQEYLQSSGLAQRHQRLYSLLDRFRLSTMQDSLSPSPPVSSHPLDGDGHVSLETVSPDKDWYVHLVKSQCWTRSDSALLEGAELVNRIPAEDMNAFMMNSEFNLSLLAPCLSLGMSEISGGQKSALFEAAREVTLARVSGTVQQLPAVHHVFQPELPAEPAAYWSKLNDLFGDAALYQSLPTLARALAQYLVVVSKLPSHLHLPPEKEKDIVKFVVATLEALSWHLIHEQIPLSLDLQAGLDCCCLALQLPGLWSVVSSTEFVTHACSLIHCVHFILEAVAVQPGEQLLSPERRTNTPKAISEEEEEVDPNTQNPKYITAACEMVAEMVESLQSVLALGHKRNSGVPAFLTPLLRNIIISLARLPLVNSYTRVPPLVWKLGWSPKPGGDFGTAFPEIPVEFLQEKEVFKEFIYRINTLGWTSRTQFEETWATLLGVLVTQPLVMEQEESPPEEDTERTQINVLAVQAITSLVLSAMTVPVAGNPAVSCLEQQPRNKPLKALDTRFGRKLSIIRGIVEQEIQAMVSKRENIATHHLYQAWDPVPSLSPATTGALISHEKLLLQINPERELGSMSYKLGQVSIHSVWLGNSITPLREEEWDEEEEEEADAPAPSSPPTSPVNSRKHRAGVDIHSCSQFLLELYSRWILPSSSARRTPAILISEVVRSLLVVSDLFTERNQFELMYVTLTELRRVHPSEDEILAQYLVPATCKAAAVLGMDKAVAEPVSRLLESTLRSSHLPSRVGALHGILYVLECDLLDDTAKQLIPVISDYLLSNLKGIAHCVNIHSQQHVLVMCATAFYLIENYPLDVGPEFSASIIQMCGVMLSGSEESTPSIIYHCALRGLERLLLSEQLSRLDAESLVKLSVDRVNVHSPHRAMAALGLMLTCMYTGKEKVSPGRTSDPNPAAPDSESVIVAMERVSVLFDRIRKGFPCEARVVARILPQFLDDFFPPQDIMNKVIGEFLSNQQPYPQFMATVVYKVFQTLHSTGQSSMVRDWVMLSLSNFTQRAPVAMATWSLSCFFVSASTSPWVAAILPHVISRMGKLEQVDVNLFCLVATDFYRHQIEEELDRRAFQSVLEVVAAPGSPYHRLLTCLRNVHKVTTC
C-terminally biotinylated HTTQ23 (apo) (biotin on the C-terminal Avi-tag), sequence (P42858 other isoform, or with tags, fused parts or gaps): as the sequence (P42858 other isoform, or with tags, fused parts or gaps, chain 1 of 2, one chain of several) above
T1 sequence (P42858 with tags, fused parts or gaps INS38QQ, one chain of several): as the sequence (P42858 other isoform, or with tags, fused parts or gaps, chain 1 of 2, one chain of several) above, with H2311Y, I2788V counted along it
Full-length wildtype HTT with a polyQ tract of 23 glutamines, apo form (HTTQ23), sequence (P42858 other isoform, or with tags, fused parts or gaps): as the sequence (P42858 other isoform, or with tags, fused parts or gaps, chain 1 of 2, one chain of several) above

Displacement of fluorescently labeled HHL1 by unlabeled macrocycle (HTT-HAP40 or HTT (HL5)): displaced
Thermal shift (ΔTm) of HTTQ23-HAP40 induced by macrocycle (HTTQ23-HAP40 [1]): stabilized
Molecule: CC[C@H](C)[C@@H]1NC(=O)[C@H](Cc2c[nH]c3ccccc23)NC(=O)[C@H](Cc2c[nH]c3ccccc23)NC(=O)[C@H](CC(N)=O)NC(=O)[C@H](CC(N)=O)NC(=O)[C@H](CCC(N)=O)NC(=O)[C@H](Cc2c[nH]c3ccccc23)NC(=O)[C@H](Cc2c[nH]cn2)NC(=O)[C@H](CCCNC(=N)N)NC(=O)[C@H]([C@@H](C)O)NC(=O)[C@@H](Cc2ccc(O)cc2)NC(=O)CSC[C@@H](C(N)=O)NC(=O)[C@H](Cc2ccccc2)NC(=O)[C@H](CCC(=O)O)NC(=O)[C@H](Cc2c[nH]cn2)NC(=O)[C@H](Cc2ccc(O)cc2)NC(=O)[C@H](CC(C)C)NC1=O [HHD3] ({CH2CO}-[dY]TRHWQNNWWILYHEFC-NH2; thioether N-17; C-terminus assumed)
Enrichment of HAP40 in macrocycle pulldowns (HAP40): consistently enriched

Displacement of fluorescently labeled HHL1 by unlabeled macrocycle (HTT-HAP40 or HTT (HL5)): displaced
Thermal shift (ΔTm) of HTTQ23-HAP40 induced by macrocycle (HTTQ23-HAP40 [1]): stabilized
Molecule: CC[C@H](C)[C@@H]1NC(=O)[C@H](CC(C)C)NC(=O)[C@H](Cc2ccc(O)cc2)NC(=O)CSC[C@@H](C(N)=O)NC(=O)[C@@H]2CCCN2C(=O)[C@H](C(C)C)NC(=O)[C@H](CCC(=O)O)NC(=O)[C@H](C(C)C)NC(=O)[C@H](Cc2ccccc2)NC(=O)[C@H](C(C)C)NC(=O)[C@H](Cc2ccccc2)NC(=O)[C@H](Cc2c[nH]c3ccccc23)NC(=O)[C@H](CC(N)=O)NC(=O)[C@H](Cc2ccccc2)NC(=O)[C@H](CO)NC(=O)[C@H](CO)NC(=O)[C@H](CCCNC(=N)N)NC1=O [HHL1] ({CH2CO}-YLIRSSFNWFVFVEVPC-NH2; thioether N-17; C-terminus assumed)

The remaining lines, values behind:

Molecule: {CH2CO}-YTHFQVAPWIQSLC (thioether N-14 (inferred)) [HL5]
Kd [2]: 10 nM

B1: HD4 (peptide)
peptide: ClAc-[dY]DIWCETNKQTGILVLC
modifications: thioether (positions not given here); also: thioether to downstream Cys, which of Cys5/Cys17 not given here
Kd [3]: 2.1 nM
Kd [2]: 4.1 nM

B2: FITC-labeled HD4 (peptide)
peptide: ClAc-[dY]DIWCETNKQTGILVLC-{FITC″}
modifications: thioether (positions not given here); also: thioether to downstream Cys, which of Cys5/Cys17 not given here
Kd (HTTQ54 (apo)): 1.5 nM
Kd [4]: 7.3 nM
Kd (HTTQ23-HAP40 [5]): 1.6 nM

B3: HHL1 (peptide)
peptide: {CH2CO}-YLIRSSFNWFVFVEVPC
modifications: thioether N-17 (inferred)
notes: macrocyclic peptide selected by RaPID on HTT-HAP40; also called macrocycle HHL1; source: synthetic peptide (Fmoc SPPS, RP-HPLC), without tags
Kd [3]: 7 nM
binding result [6]: binds

B4: HHD3 (peptide)
peptide: {CH2CO}-[dY]TRHWQNNWWILYHEFC
modifications: thioether N-17 (inferred)
notes: macrocyclic peptide selected by RaPID on HTT-HAP40; printed with a superscript D before the first Y (D-tyrosine); also called macrocycle HHD3; source: synthetic peptide (Fmoc SPPS, RP-HPLC), without tags
binding result [6]: binds
